This series is described as follows: soluble on expression in E. coli; label from the status in PepcDB or PDB records.
As to “PAFALTSPWAGSDAAAIPDHGTVCKGQWQGQEVLGMRVTWDKRYITLAPVCTLLGLAFRLYDPDGLLGGRKDLGITCALVPHDHPGVDTGRRHFPLNAMFMNGPTRGTDVFMPLEFIIDG”, the “soluble on expression in E. coli” value is “not soluble”.
Regarding “MSLNPNVQECSFEETIEAHLFANGYASLPASDYDAALALFPTSVLTFVRATQLKEWAKLEALHGANTEATVLKDLTHWLDTHGTLAVLRNGFKCYGRTLRVAYFKPAHGMNPELAAQYAANRVGVIRQLRYSQRNTNELDLVLSINGIPVFTAELKNPMTGQTVTNAIAQYQHDRDHREPLFEFKRRALVHFAVDTEQVFMTTRLAGSATHFLPFNKGLDGGAGNPPDPAGRAYRTAYLWEEVWQRDSLLDIFARFIHLQVEEKRTDDGRKIKKETMIFPRYHQLRAVRELEDAARTEGPGHNYLVEHSAGSGKSNTIGWLAHRLASLHNESDHKVFDSVIVITDRRVLDRQLQDTIYQFEHRQGVVQKIDEDSRQLAEALTNSVPIIISTLQKFPFVARQLARMAEERREGADGILPTRRCAVIIDEAHSSQSGETATDLKEVLGGHVLREEAARYAVDEGVDNLDELYRSMAKRGRQTNLSFFAFTATPKHKTLAVFGRDEAGKAGQPFHRYTMSQAIEEGFIMDVLKNYTTYATYYKLVKASEDDPNVERKQAAKALARFMRLHPYNIAQKTEVMVEHFNAVTRHKVGGKAKAMVVTGSRLEAVRYKLAFDAYIREKGYSWIKTLVAFSGEVVDDELPGKTWTEVGMNGGIKEGVLPEKFDSSEYQVLLVAEKYQTGYDQPLLHTMYVDKRLAGIQAVQTLSRLNRMHPLKEDTFVLDFVNDRQEIKEAFKQYHEGAEMGEEADPNQMYAIKAELDASGIYLLEEMQRFIGIYFKPKQRQSPADHQAMNEGHHHHHH”, the “soluble on expression in E. coli” value was “not soluble”.
Under “MKRLSPEVFKVPIDRIRNGYYSDIYFINYVKVLKRDSRHPRVYYQFFPRKDAVICGIDEALAILKFCTGYYKDEEKARELFEEILKLDKEMQAASVEMDVQKILELTQKKWDLRLKLNDLWVDKWDEIEVHALYDGEEAKEGEPIMTIEGDPTYFGYLETVLLGVIARATSTATAVKKVVKAARGKPVLFFSARFDHYWVQATDGYAALKAGAFGVSTDANADYWGVKSMGTMPHALIACYDGKTEDAAIAFDRHMEEDVNRIVLVDWDNDVIGTTFRVIEKFYEYVMKKPFKLGVTDPSPIIGPGKNKIWGVRFDTSGNLRDKSVVPKDESSFGVCPELVWRARQEFDKVGLRDLKIVVSGGFDEKKIDLFERLGVPADAYGVGSRLLREKVDITADIVEVNGRHCAKVGRYKIENPRLKKVGKRYWEEE” stands “soluble”; under “GSPLPWCPHLVAVCPIPAAGLDVTQPCGDCGTIQENWVCLSCYQVYCGRYINGHMLQHHGNSGHPLVLSYIDLSAWCYYCQAYVHHQALLDVKNIAHQNKFGEDMPHPH”, “soluble”; under “GPGSMSTSAYRVASLLRQENNKLCSDKEKNTLARLTRDVEAFLDHAADVPPVVMETPYDDGETDLMEVHLSVVAGVLEPCEPASDVTAVDGVFMPTAKNHVAMDRKRVREAQAMLNLLGALSTDCNMPTASVAAATRCRLSLGSGEKADFESDDESIAVFDADELENDTSSSDGESNVHGRPPPRILELN”, “soluble”.
In the case of “MITFQEFVNYWFEAYAKIAVKQSTQKRYRELLIPAIKAIGTKPLSDIKPLDIQKIYMNLTGKLSDSTILKLHRLLHEIFKHAVMWEYISDNPVKKVLPPSPELEHHHHHH”, the “soluble on expression in E. coli” value was “soluble”.
Under “GMPKANLEIIRSTYEGSASSNAKHLAEALSEKVEWTEAEGFPYGGTYIGVEAIMENVFSRLGSEWNDYKASVNMYHEVSGKDVIIAEGMYSGVYKDTGKSFEAEFVHVWQLENGKIVKFKQYVDSHLVREAMKS” stands “soluble”; under “MGSDKIHHHHHHMRFWDIRRVENVSLNLQLENGKLEKPRYNKSTSKGFRVLKNGFWGIFEGNVADDEGLRQAEKNAFTQGDGDIEEIATKGRYRMRVKRDPQDMSIEEKVELLKDLEKIIRDVCVSTKLVYFENRRVLQYRDSCGSEVEYEVLRTGVSIMGVGKGRSLQFLSKRQMRVGGYEVLDGVDEKAYEIVEVLPKLVNALAPPSGEMSVVMDSSLAGVFVHEAFGHAVEADHVLQGATVLKGRLNEKVADESVTIIDDPTLPEFGFFPFDDEGVRAEKKVIVEDGVLKSFLHSRETAKKLGGVAGNARSQGVDVPIVRMSNTYIDTHHYSFDELLEECRDGVYLVGSRGGETNPATGYFHFNAQYGYLIKNGELAEMVRDVSLSGNTLEILRNVKIGREIEFDPGFCGKAGQLVPVSDGSPPVLCRATVGGA”, “not soluble”.
“MGNKIAVIPGTFDPITNGHLDIIERAAKIFDVLYVSVLNNSSKKPLFTVEERMEMIKQVTAHLPNVHVESASGLTVDYAAKRGATAIVRGLRAVSDFEYEMQIASMNRTLNADIETFFVMTNTKYSFLSSSMVKEVAQYQGDIRELVPEVVNKAVKAKFNK”: the “soluble on expression in E. coli” value is recorded as “not soluble”.
Regarding “MGSDKIHHHHHHMFLQPLLAKKIIAEVKKMYEREVIIVNTDGLIMAGTNDERVGQFHEGALICAKERRSVIITKEDETRLKGVKAGINLPVFFDHDVISVFGLTGEPAEIQPFGELLRKMTELFIKESRHLEQSQWRERMLESFMIDWLQLKEWSPSFLEKAQLLGVDLSSRRQMILIQGYEWSPHDIEQMARSWKSSYPADLFIRWGNERILINHEVPQHEQRDRLLRKILHICSFANTASSQYTAAGAGRAVASSSLTDSYEQAEKALAVSLKRKTPIFEEDLKLDMCLTEISPGTRNEFPQRVLGKALEHQELMNTIRTFFHHDLSLKQTAEDMHIHINTLRYRLAKAEQLTGLRFDRTEDVVTMYVALYFLDQDTK”, the “soluble on expression in E. coli” value is listed as “not soluble”.
“MGSDKIHHHHHHYGGDITYNNHNNFHVLHDRHHRSHHSRSNSRDSDEKWECRRLGVFNSPNPLTNPLLSAPKIAYFNRNGKEYAIAVCENPQIQILVGKSRGASPDFTQTRDYAVLSASSKSGLTFKCNRRHDRYEAVNLVTGSMARIEALACITVAQNDTAAVAIVNGIVGPLQAAGLHL”: the “soluble on expression in E. coli” value is “not soluble”.
In the case of “MGSDKIHHHHHHMNFETVIGLEVHVELKTESKIFSASPNHFGAEPNANTSVIDLGYPGVLPVLNKAAVEFAMKAAMALNCEVATDTKFDRKNYFYPDNPKAYQISQFDKPIGENGWIEIEVDGTKKKIGITRLHLEEDAGKLTHSGNGYSLVDFNRQGTPLIEIVSEPDIRTPQEAYAYLEKLKSIIQYTGVSDCKMEEGSLRCDANISLRPVGQEEFGTKTELKNLNSFNFVRKGLEYEEKRQAQVLLSGGEILQETRRYDEAANKTVLMRVKEGSDDYRYFPEPDLVALHIDDEWKARIRSEIPELPDARKKRYVEELGLPAYDAMVLTLTKEMSDFFEETIAKGADPKLASNWLMGEVSGYLNAEQKELDEVALTPDGLAKMIQLIEKGTISSKIAKKVFKDLIEKGGDPEEIVKAKGLVQISDEGELRKYVVEVLDNNQQSIDDFKNGKDRAIGFLVGQIMKATKGKANPPMVNKLLLEEINKR”, the “soluble on expression in E. coli” value was “not soluble”.
Consider “MRLNKRLPAALSGLLLSAALLAGCSTSGTAETTTTTVSSAAASTTTSTSSASSSSSSSSSSSSSDSSTTAETISNTAEAAQAFLSTLSTEEQDAVLYDYDAEEKSTGWSNFPVTFVQRSGVNLTDLTEEQQAAALNVLKNLLNDDAYQMIEDIMASDQYLNDESNTTEDSLGQYYIAFFGDPSSDSDWSIQFGGHHIGINTTFSDGAITFAPTHLGTQPSEWTNEDGETVAALSNMYETAFAFYDSLAEEQQAQLYQGEELDSMVCAPGSTCDYPTGTGLKGSDLTDEQKELLIDVIANWVGLADEETTETELDAIRETLDDTYINWSGATEYDTSTGDGIYFQISGPKVYIEFANQQGSAGADIDGVITAGWGHIHTIYRDPTNDYANSVTQEAASGMMGGGPGGNGGEMPSGDMPTGEMPSGAPSNLEHHHHHH”, for which the “soluble on expression in E. coli” value is reported as “not soluble”.
In the case of “MSHKLPSATDKYYFEVLRNEEKSEMLKFLLESFRVDEPLNRASKISCEEIEKCLDGALDRALKTESSILARSQDTHEIVGCMLNSVWRRDESLCTPGEEDKDFEFHTIRKEVAMVAEILNELHESFWSLRPDQDVVLHFEISSVSVNHRRQGLASKFMNWTENKKFLDTFGATGIATEASSLANQALLAKRGYSTIATTLLDTKVDPDTGKPILVCDDGTDRVNLMFKTF”, the “soluble on expression in E. coli” value was “not soluble”.

Source of the values: the DeepSol protein solubility set.
